A protein production outcome set (Wang et al. 2014)

experiment: label from the status in PepcDB records

| Sequence | protein production |
| --- | --- |
| MAESGVSVGSESLQLYEAQFFGFTPETCTLRVRDAFRDSLNHILVAVESVFVKRLCPGRDPPAELRLTARESTQKLRQFLQERFEIMFQRMKGMLIDRMLSIPQNVLLPEDQMHQKYPEGKEELTKLQESIAKLLQAYEAEVCSKQALLAELEEQKETQKQLDEVLRWIEELRVSWRREGMGNVQDSVRHMIETVGQLQDVVGKINKQNSALDEV | failed |
| MAETAAGVGRFKTNYAVERKIEPFYKGGKAQLDQTGQHLFCVCGTRVNILEVASGAVLRSLEQEDQEDITAFDLSPDNEVLVTASRALLLAQWAWQEGSVTRLSKAIHTAPVATMAFDPTSTLLATGGCDGAVRVWDIVRHYGTHHFRGSPGVVHLVAFHPDPTRLLLFSSATDAAIRVWSLQDRSCLAVLTAHYSAVTSLAFSADGHTMLSSGRDKICIIWDLQSCQATRTVPVFESVEAAVLLPEEPVSQLGVKSPGLYFLTAGDQGTLRVWEAASGQCVYTQAQPPGPGQELTHCTLAHTAGVVLTATADHNLLLYEARSLRLQKQFAGYSEEVLDVRFLGPEDSHVVVASNSPCLKVFELQTSACQILHGHTDIVLALDVFRKGWLFASCAKDQSVRIWRMNKAGQVMCVAQGSGHTHSVGTVCCSRLKESFLVTGSQDCTVKLWPLPKALLSKNTAPDNGPILLQAQTTQRCHDKDINSVAIAPNDKLLATGSQDRTAKLWALPQCQLLGVFSGHRRGLWCVQFSPMDQVLATASADGTIKLWALQDFSCLKTFEGHDASVLKVAFVSRGTQLLSSGSDGLVKLWTIKNNECVRTLDAHEDKVWGLHCSRLDDHALTGASDSRVILWKDVTEAEQAEEQARQEEQVVRQQELDNLLHEKRYLRALGLAISLDRPHTVLTVIQAIRRDPEACEKLEATMLRLRRDQKEALLRFCVTWNTNSRHCHEAQAVLGVLLRREAPEELLAYEGVRAALEALLPYTERHFQRLSRTLQAAAFLDFLWHNMKLPVPAAAPTPWETHKGALP | failed |
| MAETSIEWTDVTWNPVAGCTVLTAGCTNCYAMRMAARLEAMGVEKYAGLTRKSGGRAKWTGRIFLDRKALSIPASWSKPRRVFVNSMSDLFHSDVPTDFISDVWKVMAQTPRHTYQILTKRPDRMVEIVPGLAKLRNVWLGTSVEDARVIYRIDKLRQVPAAVRFVSFEPLIGSVSGAGLRNIHWAIVGGESGPKARSMDPAWVDEIESMCRDQGAAFFFKQWGGKNKKAAGRTLNGRLYDEMPAPSMP | failed |
| MAEVLVYVDHVDGAVRKPTLELLTLARRIGEPVALALGSGAENTAAALAEHGAGKVLTHDAAEYADYLVVPKVDALQAAYEAVSPAAVLIPSSAEGKEIAARLAVRIGSGIITDAVDLEAGDEGPVATQSAFAASFTTKSRVSKGTPVITVKPNSAPVEAAPAAGAVEALSVSFSDKATGTKVTGRTPRESTGRPELTEAAIVVSGGRGVNGAENFAIIEALADSLGAAVGASRAAVDAGWYPHSNQVGQTGKAVSPQLYIASGISGAIQHRAGMQTSKTIVAINKDAEAPIFDLVDYGVVGDLFDVVPQLTDEVKTRKG | failed |
| MAEVTGVRALTGAALDAALEDVARLRIAVFRAWPYLYDGDLDYERDYLQAYRNSDRAIVVGAFDGDRLIGASTGMPLADHADDFAAAFADSGLALDQVFYCAESVLLPDYRGHGVGHRFFDLREGHARALGFAKCAFCGVQRPADHPLKPDSYRPLDAFWRARGYEKLPGAVAHFSWKDLDQENETDKPLQFWIRDL | failed |
| MAFTESDVYNNTAFFEQYMKRRYRENSPNESIEKPVFFQLIGHVQGKQILDLGCGDAKFGAELLEKGCYSYTGIEGSELMYEKAKKQLENKNGSVHFLNLKDYTYPSSTFDLVTSRLALHYIEHLDTIFQNVFQTLKTNGTFTFSVQHPVITSSFESLQTSGKRTIWLVDDYFKLGKRVEPWIDQEVIKYHRTTEEYFTLLQQAGFTITSLKEATPNPTYFQDEEEYKRRLRIPLFLLFSCTK | failed |
| MAGALITASAACAEDAPDFRLDLDTGGHTARIARLAFTPDGEDIVSASDDKTIRIWDWQSGVTLRTIRGYLGNGSDGKIFAVSVSPDGKTIAAGGYFGAGLGDKPPYGDIRLFDFATGKMKAVLRAADYATYDLAFSPDGKTLAAGGGDGMVYLWRLDDKSATGWTLDKKLDADSWHIDKLAFAAAGTRLAATTTDNGIRLWDVAKGEEIALPDEAEPLRDVSVLALAISQDGSLFATGSKDGQVQLWRAADGTLVHAMPKQDFLIGSLTFAKGSRLVASCGYRCADKHRSIVWNTDSGEKLLDYSGHDGTVYASAANADGSLVATAGGTRNAIQVWDPATGERKALLQGVGEPVTAIGIDAANGIIAWGNTNPCPERVACPEQLGALDKRLELPTTERFFDDPQPLTEPGSFARAAQSDGEWSLHATKGGKDALENAVLEIANGGKVVRSIENDATNGFAHSAFTLIDNGLGLITGGNDGTLLEYKAATARVSGEFTGHTGEINAMAASEKAGLLVTGSADQTLRLWNLKTHELIVSMFFAGPQWIAWMPQGYYYSSDEGDKLIGWHVNQGRDHEGRFIRAGQLKKYLWSPEMVRRAIILRSAKQAVKEMRPGVDNELQKLLQRKPPEFGVRLADDQSKVRDGYVAVEITGAKEAGTDVAGFSILSNSRNVGDIATRSAEGDKTTVEVPVENGQNTIRITGTNEYGYLTERSVTALARKTEKAEAKGKLYVAVIGVDKYPFLTDACSGHACDLRYPVDDATEFLEVVAQKSAPLFSSMETLVLVNREALDESPDKAKQTYTVASADNIMEPDSHTIDDQLADFLDRPGEHDTTIVFVAGHGINIDEDYYFIPTDGRKQDADRWKRSSLVDWGDIQKSVERAKGMRFMLLDTCHAANAFNPRLEKDAQDARIVVFSATAANNTAAELPELGHGVFTYSILEGLRGKARTSDGGITLFGLADFISHEVVRLTASKQKPFYYVGGVENIVLAEP | failed |
| MAGAMRKMAVYLGLVEDDGYDGRGFDPDDDFEPELDPEPERDHRRHEPAHQSHGAHQSQRDEEVRVVQPPAQREPMPRAASLAAESSRPARIAPVASITQERASLEKSAPVIMPKVVSEREPYRITTLHPRTYNEARTIGEHFREGTPVIMNLTEMDDTDAKRLVDFAAGLVFGLHGSIERVTQKVFLLSPANVDVTAEDKARIAEGGFFNQSLEHHHHHH | failed |
| MAGASVAATTLKGDTSLLAGGAIRGAINAFGKDKKLKTQLASSGKLYGKYAKAASKIENLVLGGENISLVVDPP | failed |
| MAGCGANDTSSTKEKASSEKSGVTKEITASVNKMETIISKLNDSVEKGDQKEIEKKGKELNSYWLSFENDIRSDYPFEYTEIEKHLQPIYTEAQKDKPDAGKIKTESESLKASLEDLTEAKKSGKKASDQLAKAADEYKGYVKEQSDQLVKATEAFTGAVKSGDIEKSKTLYAKARVYYERIEPIAESLGDLDPKIDARENDVEEGDKWTGFHKLEKAIWKDQDISGEKATADQLLKDVKELDGSIQSLKLTPEQIVAGAMELLNEAGISKITGEEERYSRIDLVDLMANVEGSEAVYQTVKSALVKDHSDLTEKLDTEFSEFEVLMAKYKTNDQSYTSYDKLSEKQIRELSTKLTTLSETMSKIANVLLEHHHHHH | not failed |
| MAGDVEGFCSSIHDTSVSAGFRALYEEGLLLDVTLVIEDHQFQAHKALLATQSDYFRIMFTADMRERDQDKIHLKGLTATGFSHVLQFMYYGTIELSMNTVHEILQAAMYVQLIEVVKFCCSFLLAKICLENCAEIMRLLDDFGVNIEGVREKLDAFLLDNFVPLMSRPDFLSYLSFEKLMSYLDNDHLSRFPEIELYEAVQSWLRHDRRRWRHTDTIIQNIRFCLMTPSSVFEKVGTFESDRQDSSI | failed |
| MAGDYHRGEMDIQEQAATYDAFGKMTKWGSLAISVLLLFFTLLFCTSAGFIGSAIASIVLLVLGVVLLKEKPTQSH | failed |
| MAGENSDNEPSSPASPSSAGFNTDQLPISTSQNSENFSDEEEAAVDTQVIRDEPDEAEDEEEEEGEDLFNDTFMNDYRKMDENDQYESNGIDDSVDDERDLGQAMLDRRAADADLDARENRLANRKLPHLLHDNDSDDWNYRPSKRSRTTVPPRGNGGDPDGNPPSSPGVSQPDISMTDQTDDYQDEDDNDDEAEFEMYRIQGTLREWVMRDEVRRFIAKKFKDFLLTYVKPKNENGDIEYVPNKCSLEIDYKEFIHVHPNIAIWLADAPQPVLEVMEEVSEKVIFDLHPNYKNIHTKIYVRVTNLPVNDQIRNIRQIHLNTMIRIGGVVTRRSGVFPQLQQVKYDCNKCGAVLGPFFQNSYSEVKVGSCSECQSKGPFTVNVEQTIYRNYQKLTIQESPGTVPAGRLPRHKEVILLNDLIDCARPGEEIEVTGIYTNNFDLSLNTKNGFPVFATVVEANYVTKKQDLFSAYKLTQEDKTQIEELSKDPRIVERIIKSIAPSIYGHEDIKTALALAMFGGQEKNIKGKHRLRGDINVLLLGDPGTAKSQFLKYVEKTGQRAVYTTGKGASAVGLTAAVHKDPVTREWTLEGGALVLADRGICLIDEFDKMNDQDRVSIHEAMEQQSISISKAGIVTSLQARCSVIAAANPVGGRYDSSKSFAQNVELTDPILSRFDILCVVKDVVDPVTDEMLAEFVVNSHFKSQPKGGKMEDSDPEDGIQGSSGSTDPEVLPQNLLKKYLTYSKLYVFPKLGELDAKKLETVYANLRRESMNGQGVSIATRHLESMIRMSEAHARMHLRQYVTEEDVNMAIRVLLDSFISTQKFGVQRTLRESFKRYITYKKDFNSLLLVLLKELVKNALKFEEIISGSNSGLPTIEVKIEELQTKAKEYDIADLRPFFSSTDFSKAHFELDHGRGMIKCPKRLITW | failed |
| MAGFMKNAMSYLGMSDVVDDEDDYIEEDEEQKPASKSAFDSDHTVTPLASTTAPAASSTTKPFPGGRVNRITTIHPKSYEDAQLVGRALRDGVPVVLNLTGVAEAVAYRIVDFSAGVVFGVRGSLERVTPRVFLLSPAQVNIKVEEPTKPASAHDLFADLEHHHHHH | failed |
| MAGFVPLRWPISRMSSAVPRYIVGIDLGTTHTVVSYADGGDPSRIEPLFLEQLVAPGQVAGRPLLPSVRYHPATGELAEADTALPWPVEETAPGCRPVIGEFARQLGSRSRGRLVASAKSWLCHTGVDRTADILPWGAPDEVPKVSPVEASASFLRHVRCAWNHRFPAHPLETQDVIVTIPASFDDAARALTVEAARRAGLANVRLLEEPQAACYDFLWTYRGRLAETLEGVNLLLVCDVGGGTTDFTLIRVDAGGSEPELERIAVGNHLMLGGDNIDLTLAHRLEPRLTGAERSLSATDLILLAEQCRRAKETLLAEQGPESVTVTLLGKGGGLIGGARSVELSRHEVLEVVLDGFFPRVGADAVPERRSGVVEFGLPYAADPAITRHAAAFLIRHRNDAGGAAPDALLLNGGVFHSPVIAGRMAEVVGSWCGRTPVMLRNPRPDQAVAFGAVAFGLSRRGLAVRRIGGGSARAYYLLVGDANERSRRGVCILPRGAAEGQEWTVERRNFLLSVGRPVRFHVFSSTVDSGHAPGDLAVLDEAGFGELPPLAVALQAQEQGDVEVRLAARLTAIGTLQLQCVAVGDPEQRWDLELQLRGGGPRPTASASLHPRAAEAQEHIGLIFGKKTRQFGPKAVKTLRNDLEKILGKREDWDTALCRELYAALLEGAPHRRRSADHERLWLSLAGYCLRPGFGAPLDDWRVGQVWNLYSQGLQFVNEAQNWSEWWIVWRRIAGGLRAEAQQRLFADVAGFIDPVRARRGNAEALAKKRAFEDMVRLAASLERLSAGDKTMLGGWLVQRLDKAPDSAELWWALGRVGARAPFHGSAHNLVAREVVEDWVELALQRDWKRQGFVAFAATLLARLTGDRERDLDATLRNRVAEKLVASSAPEIWLELVTEVRGLDASDEKRIFGEGLPPGLRLVDSAWGALEHHHHHH | failed |
